Patent US20210054048A1

Molecular target: alcohol dehydrogenase (ADH)
Experiment: cell-based or functional assay

- decrease in ADH aggregation (optical density at 360 nm, 48° C., 2 h): 61%
Substance: CryS96 (αB-crystallin peptide fused with ELP S96)
